# Measurements published in PMC8004985, “Affinity Purification of Angiotensin Converting Enzyme Inhibitory Peptides from Wakame (Undaria Pinnatifida) Using Immobilized ACE on Magnetic Metal Organic Frameworks” (Marine Drugs, 2021).
# Key:
# [1] = Enzymatic stability and reusability of free and immobilized ACE; assay type: biochemical, pig
# Procedure: (§1) The ACE was prepared from pig lung and the precipitates were dialyzed and used as a crude enzyme sample for the immobilization of ACE [6]. Twenty-five milligrams of Fe3O4@ZIF-90 nanoparticles were dispersed in 2 mL of crude sample, and incubated with shaking for a certain time at different temperatures to immobilize the ACE. The immobilized ACE (Fe3O4@ZIF-90-ACE) was magnetically recovered and the precipitate was washed several times by 0.1 M phosphate (PBS) buffer until the supernatant was free of protein. Immobilized ACE was quantified using the Bradford method, which used bovine serum albumin (BSA) as the standard. Finally, the obtained immobilized ACE was stored at −80 °C. Enzyme loading capacity was calculated using Equation (1):(1) Enzyme loading capacity(mg⋅g^−1)=(Total protein content-supernatant protein content) /Total mass of Fe3O4@ZIF-90
# To determine thermal stability, the immobilized ACE was dispersed in PBS buffer in the absence of the HHL substrate at 20–60 °C for 1 h. […]
# The storage stability of immobilized ACE was determined by storing at −20 °C for 30 days. The enzyme activity was then measured, and the relative activity was compared with that of the untreated ACE. The immobilized ACE was evaluated over six successive cycles to investigate the reusability stability; the first-time detection activity was considered as 100%.
# (§2) ACE activity was evaluated by measuring the amount of hippuric acid (HA). The assay mixture (0.3 mL) consisted of 130 µL BBS buffer pH 8.3 ([…], containing 0.3 M NaCl), 40 µL HHL (5 mM), and different amounts of the free and immobilized ACE. Incubation was carried out at 37 °C for 10 min and was terminated by addition of HCl (0.1 mL, 1 M). The HA content of the mixture was determined by RP-HPLC (Agilent 1260) at 228 nm with a DAD detector. One unit of ACE enzyme activity (U) was defined as the amount of enzyme catalyzing HHL to generate 1 µM of HA per minute under the experimental conditions.
# [2] = Enzyme characterisation of free and immobilized ACE (optimum pH, temperature, Ea, Km, Vmax); assay type: biochemical, pig
# Procedure: as §1, §2
# [3] = HHL substrate, Table S2, Lineweaver-Burk
molecule,measurement,setting,value
"free ACE: free angiotensin-I-converting enzyme (protein, UniProt P12821 30-1306, looked up) Angiotensin-converting enzyme: LDPGLQPGNFSADEAGAQLFAQSYNSSAEQVLFQSVAASWAHDTNITAENARRQEEAALLSQEFAEAWGQKAKELYEPIWQNFTDPQLRRIIGAVRTLGSANLPLAKRQQYNALLSNMSRIYSTAKVCLPNKTATCWSLDPDLTNILASSRSYAMLLFAWEGWHNAAGIPLKPLYEDFTALSNEAYKQDGFTDTGAYWRSWYNSPTFEDDLEHLYQQLEPLYLNLHAFVRRALHRRYGDRYINLRGPIPAHLLGDMWAQSWENIYDMVVPFPDKPNLDVTSTMLQQGWNATHMFRVAEEFFTSLELSPMPPEFWEGSMLEKPADGREVVCHASAWDFYNRKDFRIKQCTRVTMDQLSTVHHEMGHIQYYLQYKDLPVSLRRGANPGFHEAIGDVLALSVSTPEHLHKIGLLDRVTNDTESDINYLLKMALEKIAFLPFGYLVDQWRWGVFSGRTPPSRYNFDWWYLRTKYQGICPPVTRNETHFDAGAKFHVPNVTPYIRYFVSFVLQFQFHEALCKEAGYEGPLHQCDIYRSTKAGAKLRKVLQAGSSRPWQEVLKDMVGLDALDAQPLLKYFQPVTQWLQEQNQQNGEVLGWPEYQWHPPLPDNYPEGIDLVTDEAEASKFVEEYDRTSQVVWNEYAEANWNYNTNITTETSKILLQKNMQIANHTLKYGTQARKFDVNQLQNTTIKRIIKKVQDLERAALPAQELEEYNKILLDMETTYSVATVCHPNGSCLQLEPDLTNVMATSRKYEDLLWAWEGWRDKAGRAILQFYPKYVELINQAARLNGYVDAGDSWRSMYETPSLEQDLERLFQELQPLYLNLHAYVRRALHRHYGAQHINLEGPIPAHLLGNMWAQTWSNIYDLVVPFPSAPSMDTTEAMLKQGWTPRRMFKEADDFFTSLGLLPVPPEFWNKSMLEKPTDGREVVCHASAWDFYNGKDFRIKQCTTVNLEDLVVAHHEMGHIQYFMQYKDLPVALREGANPGFHEAIGDVLALSVSTPKHLHSLNLLSSEGGSDEHDINFLMKMALDKIAFIPFSYLVDQWRWRVFDGSITKENYNQEWWSLRLKYQGLCPPVPRTQGDFDPGAKFHIPSSVPYIRYFVSFIIQFQFHEALCQAAGHTGPLHKCDIYQSKEAGQRLATAMKLGFSRPWPEAMQLITGQPNMSASAMLSYFKPLLDWLRTENELHGEKLGWPQYNWTPNSARSEGPLPDSGRVSFLGLDLDAQQARVGQWLLLFLGIALLVATLGLSQRLFSIRHRSLHRHSHGPQFGSEVELRHS",activity lost on storage,"[1]; 30 days, −20 °C",45.04%
same,residual activity (thermal stability),"[1]; after heating at 60 °C for 1 h, PBS buffer, absence of HHL",22.03%
same,relative activity (pH stability),"[1]; pH 5.0–10.0 (method: pH 5.0–9.0), 1 h",37.05%
same,loss of relative activity between 35°C and 50°C,[2]; 35°C to 50°C,> 40%
same,Ea (activation energy),"[2]; Arrhenius equation, Fig. S5 (c)",8.535 kcal/mol
same,Optimum pH,[2]; Fig. S5 (a),8.3
same,optimum temperature,[2]; Fig. S5 (b),40 °C
same,Km,[2]; [3],1960 µM
same,Vmax,[2]; [3],46.296 mmol/min
same,catalytic efficiency,[2]; Table S2,23.596
